According to patent US20230103618A1 (FRED HUTCHINSON CANCER CENTER, published 2023):
No end group written: not given here.

Target: T1, TrkB.T1 peptide FVLFHKIPLDG (not fully specified)
T1 construct: also called target peptide
T1 peptide: FVLFHKIPLDG
Experiment: bead-based flow cytometry, peptide on beads
From the text: Murine monoclonal antibody (clone FH1D12) was generated at the Fred Hutchinson Antibody Technology Core Facility. Briefly, male and female 20-week-old C57BL6 mice that were characterized as genetic null for TrkB.T1 (Dorsey, S. G. et al.) In vivo restoration of physiological levels of truncated TrkB.T1 receptor rescues neuronal cell death in a trisomic mouse model. Neuron 51, 21-28 (2006)) were immunized with TrkB.T1 peptide Ac—C(dPEG4)[…]-OH (SEQ ID NO:1) maleimide coupled to KLH carrier protein. Following a 12+ week boosting protocol splenocytes were isolated from high titer mice and electrofused to a subclone of the P3x63-Ag8 myeloma cell line (BTX, Harvard Apparatus). Hybridomas secreting peptide specific antibody were identified and isolated using a ClonePix2 (Molecular Devices, CPII) colony picker. Antibodies from the picked clones were validated for peptide binding by flow cytometry using a cytometric bead array carrying the target peptide. Clone FH1D12 was subcloned (CPII) followed by validation for peptide binding by bead-based flow cytometry. Affinity purified IgG2b lambda from the hybridoma was further characterized by Western blot analysis and IHC tissue staining. Antibody development was performed in Holland Lab and with the Antibody Technology Resource (Fred Hutchinson Cancer Research Center).

- binding result: binds
B1: Murine monoclonal antibody (clone FH1D12) to TrkB.T1 (antibody, V domains shown)
VH: VQLQQSGPELARPWASVKISCQAFYTFSRGIHFDIRNTMYWIQWVKQRPGQGLEWIGAIYPGNGDPTYSQNFKDKATLTADKSSNTAYMQLSSLTSEDSAVYYCARYDYGGGFTYWGQGTLVTVSA
VL: QTVVTQESALTTSPGETVTLTCRSSTGAVTTSNYANWVQEKPDHLFTGLIGGINNRAPGVPARFSGSLIGDKAVLTITGAQTEDEAIYFCALWYSNHWVFGGGTKLTVL
notes: also called SPEH1_D12; antibody clone D12
